The values that follow come from patent US20150241442A1.

The target of the test is Leukocyte Function Antigen-1 (LFA-1), on cells (Jurkat T cells, human T cells, PBMC) (human) (UniProt P20701). Kind of test: cell-based or functional assay.
Chain of Leukocyte Function Antigen-1 (LFA-1), on cells (Jurkat T cells, human T cells, PBMC) (human) (P20701 26-1170, chain 1 of 2): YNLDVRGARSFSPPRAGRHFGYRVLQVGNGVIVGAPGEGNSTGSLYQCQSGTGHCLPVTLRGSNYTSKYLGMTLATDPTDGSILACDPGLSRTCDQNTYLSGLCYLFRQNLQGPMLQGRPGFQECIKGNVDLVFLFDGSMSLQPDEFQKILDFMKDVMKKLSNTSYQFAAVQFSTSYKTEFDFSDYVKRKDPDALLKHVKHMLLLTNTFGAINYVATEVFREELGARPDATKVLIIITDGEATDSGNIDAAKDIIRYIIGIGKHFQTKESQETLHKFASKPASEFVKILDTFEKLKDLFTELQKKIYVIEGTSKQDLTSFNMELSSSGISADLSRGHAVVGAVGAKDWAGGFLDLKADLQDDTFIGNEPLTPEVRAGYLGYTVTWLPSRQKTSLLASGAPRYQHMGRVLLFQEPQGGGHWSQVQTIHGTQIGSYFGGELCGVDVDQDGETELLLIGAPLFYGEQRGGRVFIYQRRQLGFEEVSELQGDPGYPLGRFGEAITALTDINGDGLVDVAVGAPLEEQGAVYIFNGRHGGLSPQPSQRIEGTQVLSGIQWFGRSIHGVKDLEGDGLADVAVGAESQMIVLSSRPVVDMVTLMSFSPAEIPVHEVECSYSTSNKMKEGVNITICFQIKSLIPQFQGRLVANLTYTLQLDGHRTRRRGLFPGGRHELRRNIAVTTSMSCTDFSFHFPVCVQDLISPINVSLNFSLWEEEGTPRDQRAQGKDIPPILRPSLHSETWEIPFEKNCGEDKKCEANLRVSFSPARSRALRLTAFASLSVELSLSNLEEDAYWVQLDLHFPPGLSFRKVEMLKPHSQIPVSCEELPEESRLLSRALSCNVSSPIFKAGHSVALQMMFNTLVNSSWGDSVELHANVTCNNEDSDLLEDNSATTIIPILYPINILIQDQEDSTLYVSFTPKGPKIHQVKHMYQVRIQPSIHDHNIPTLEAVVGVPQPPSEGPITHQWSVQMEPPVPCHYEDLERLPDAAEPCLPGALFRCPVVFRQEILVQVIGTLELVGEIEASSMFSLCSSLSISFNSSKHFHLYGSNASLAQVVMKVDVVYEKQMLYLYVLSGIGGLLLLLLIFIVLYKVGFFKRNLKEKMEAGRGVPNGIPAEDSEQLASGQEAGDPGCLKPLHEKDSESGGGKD
Chain of Leukocyte Function Antigen-1 (LFA-1), on cells (Jurkat T cells, human T cells, PBMC) (human) (P05107 23-769, chain 2 of 2, further chain): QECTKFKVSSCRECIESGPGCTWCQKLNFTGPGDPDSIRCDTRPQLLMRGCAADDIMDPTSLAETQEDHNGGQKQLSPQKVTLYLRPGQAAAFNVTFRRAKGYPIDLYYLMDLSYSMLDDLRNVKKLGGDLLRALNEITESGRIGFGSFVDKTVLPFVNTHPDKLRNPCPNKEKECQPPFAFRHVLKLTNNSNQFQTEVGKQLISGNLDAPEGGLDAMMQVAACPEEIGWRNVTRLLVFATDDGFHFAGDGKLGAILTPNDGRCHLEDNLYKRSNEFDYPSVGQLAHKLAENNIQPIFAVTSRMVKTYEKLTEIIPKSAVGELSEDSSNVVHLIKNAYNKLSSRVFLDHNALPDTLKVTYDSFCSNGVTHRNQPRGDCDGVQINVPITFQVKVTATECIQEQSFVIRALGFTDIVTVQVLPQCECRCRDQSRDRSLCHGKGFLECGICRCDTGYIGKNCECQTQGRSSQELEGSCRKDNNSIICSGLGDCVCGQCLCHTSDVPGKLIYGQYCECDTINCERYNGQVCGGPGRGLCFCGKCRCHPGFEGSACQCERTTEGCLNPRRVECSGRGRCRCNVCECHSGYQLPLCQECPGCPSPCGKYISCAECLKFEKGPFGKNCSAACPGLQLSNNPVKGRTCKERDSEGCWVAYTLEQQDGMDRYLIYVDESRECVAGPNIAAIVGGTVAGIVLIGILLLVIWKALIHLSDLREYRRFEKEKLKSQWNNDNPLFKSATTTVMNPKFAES

Chain of recombinant human ICAM-1-FC (P05362 28-480 limits assumed): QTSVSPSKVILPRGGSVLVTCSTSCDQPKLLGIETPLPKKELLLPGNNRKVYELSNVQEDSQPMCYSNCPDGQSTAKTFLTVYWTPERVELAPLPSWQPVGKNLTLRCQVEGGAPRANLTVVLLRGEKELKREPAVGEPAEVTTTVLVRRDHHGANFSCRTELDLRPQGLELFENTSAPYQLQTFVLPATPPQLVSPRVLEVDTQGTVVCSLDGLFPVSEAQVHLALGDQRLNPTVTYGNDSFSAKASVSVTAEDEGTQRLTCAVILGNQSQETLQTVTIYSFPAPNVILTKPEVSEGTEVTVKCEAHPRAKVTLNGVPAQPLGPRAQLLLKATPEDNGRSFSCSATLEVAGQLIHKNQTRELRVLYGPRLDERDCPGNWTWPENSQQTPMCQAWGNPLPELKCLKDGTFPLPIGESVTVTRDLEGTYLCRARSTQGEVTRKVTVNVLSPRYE

In turn, “recombinant human ICAM-1-FC (from UniProt P05362 28-480) (Fc fusion)” displayed a frequency of the perforin negative population, CD56+CD8med cells of 13.7% and a granzyme-A negative population, CD56+CD8high cells of 4.12%.
